Assay: soluble on expression in E. coli; label from the status in PepcDB or PDB records

Sequence | soluble on expression in E. coli
MAIDNIKAYVHLSDADIEEIGRRLDQIKAEVTQSLGARDVAYIKRLIRTQRSLEAAGRFALLFAGNKKCWWLGTGLLSTAKILENLEIGHNVLHGQWDWMNDPEIHSTTWEWDIVCPSSQWMHSHNFVHHTYTNVLGMDNDVGYGILRVTRDRKWTPLHAFQPAVNTVLAAMFQWAVGYYDVELGRYLTKRADWNDTKDKFWETTNKAGRQLARDYVFYPALARKAFPQAVKANAVANLVRSVWAYSVIFCGHFPDEAETFTKEQFKNEDHNQWYLRQMLGSANFYGGKLLTIMSGNLNYQIEHHLFPDMPSNRLAEVGEKVRALCDEYDLPYNVDSFPAQLFKVQKTLLKLTLPNKYLVASPDNAPEVRSNRAFSQNPELEHHHHHH | soluble
MAAVVKSVALAGRPTTPDRVHEVLGRSMLVDGLDIVLDLTRSGGSYLVDAITGRRYLDMFTFVASSALGMNPPALVDDREFHAELMQAALNKPSNSDVYSVAMARFVETFARVLGDPALPHLFFVEGGALAVENALKAAFDWKSRHNQAHGIDPALGTQVLHLRGAFHGRSGYTLSLTNTKPTITARFPKFDWPRIDAPYMRPGLDEPAMAALEAEALRQARAAFETRPHDIACFVAEPIQGEGGDRHFRPEFFAAMRELCDEFDALLIFDEVQTGCGLTGTAWAYQQLDVAPDIVAFGKKTQVCGVMAGRRVDEVADNVFAVPSRLASTWGGNLTDMVRARRILEVIEAEGLFERAVQHGKYLRARLDELAADFPAVVLDPRGRGLMCAFSLPTTADRDELIRQLWQRAVIVLPAGADTVRFRPPLTVSTAEIDAAIAAVRSALPVVT | soluble
MGSDKIHHHHHHMMDFYIKQIIIHQFSPNDTELVLSDTPLTLTPRIDDYFRKKLSKVFSDEAKRGYFGEDNVFMSHLQDDLYVSSCQIAQLWKEEFVISEDQKTNDLVFIQFDKDGMEHFAFLRISLKEQFAHVSENQEQPITITQNNLPSAAQTPDEALVVNKSSKQYYLIEKRIKHNGSFANYFSENLLQVQPEQSVKKSIKMVEQTAQKIAENFNKDDFSFQSKMKSAIYKNLEEEQELSPEKLADQLFDDNLTARLTFVDELKDAIPGPVQVSDIDHSRQIKKLENQKLSLSNGIELIVPNNVYQDAESVEFIQNPDGTYSILIKNIQDIQNK | not soluble
MGSDKIHHHHHHMINTKNLNVFYNENKVLKDIQLEVIPGRITGIIGPNGAGKSTLIKAILNIVPHSGEILINGEVSKKQLKKIAYVEQKSDIDHTFPIKVKECVSLGTYTGLKLFQKLGAKEWSRVSEALQKVNLLDYENRQIGELSGGQFQRVLLARCLVQEADYIFLDEPFVGIDSISEKIIMDILQDLKHQGKTILIVHHDLSKVKEYFDDIIILNRELIAYGPINENFSQKNLKKAYGDNIFIGD | not soluble
SVNYYKVLGVPRNASSSDIKRAFHQLALQVHPDKNPGDKEAAEEKFKQVAEAYHILSDAKKRKDYDRSRWNRNKGEIRGDGHDKGETIRVNDSRDETDWEEKICSRRPRHTFQKVTEDEDLFSGDCLFSGPITGSRRASSPFFTVTPIMDTGFSTFVSHESRSYSDDPETFVPYISQGMGKFRLVTTCSKTVNGKRVVTKRVVENIRGPKKIENERLFRHNPSRGWKLMENPCS | soluble
PIKVDGANINITAAIYDEIQQEMKRAKVSQALFAKVAANKSQGWLCELLRWKENPSPENRTLWENLCTIRRFLNLPQHERDVIYEEES | soluble
MENKSPMKGSEAENAKDQLKKKTAEEFAQMAIINRAFSAESTEDPPPLAQKRSESTLKPLNDELKSVPLVRAFNSAENQLDPKNQNAAKK | not soluble
MDIRQLQFFVAIVRFGSFTKAAERLRVAQPAVSMAMKRLEEELDLVLFNRQERKVSLTAEGEIFLRHAEKILEEVASTETEMEELRGLAKGEVRVGIPPMMSAYFFPQIIRDFSNRYPELHLSVSGEGASKIQKMILDGELDMGVIAGASFPDTLELRRFLREEVIVCVPKNHHLAEMERLPLQEFARHPLIFYKEGYYLRELVFDVMRGAGLNPAIRFETNLYTLVKSLIRKGMGISVFLRMVVEEDDDLEAIPLDPPLYLDLQIAWKKYGYLSRANRAFVDFLLEQSARAHQPVGSCPARLVPAG | not soluble
MGSDKIHHHHHHLANTKELGPLRILISRLLKKAGELCFTASDLTISKEQAKLITRGAPRFPYHTPHNMLFWLDESQYVDKCIIQHGKYESASTNLVQQFVKEGQTVLDIGGNIGYYTVMFSKIVGRSGKVITFEPTAHYRSILEKNVQENQINNVLIRPEGLSDKAEKLTISIGSSTATLHAPEGQQIDSYEAIQLARLDDLVEQLDITKLDFIKIDVDGHEPSVLRGAQQTIKKFKPLILLEVSHLHYLEGNVFAWDFYDYLSSLNYYIYDEHEMCRITRRSDFLIRCANFDRSCNILLSPTLLNEH | not soluble
AHHHHHHASAKWVCKICGYIYDEDAGDPDNGISPGTKFEELPDDWVCPICGAPKSEFEKLEDGSRFIDANVFIYAILKPKRELNEKELKIKRVSKEIFNRINGGEEVVTTVVHLSEVANVLEDAANLSFAISFLKDVLIKGNVIVEEVSDRDYMESVLLAEEKGVSINDALAYILMKRKGIEEIYTFDRHFENLDVRIVNS | soluble
AKDAAFTVDGLSLTSKTNTVSTAISGMTFDLVAPSAAGATTTVTVATNTDGLKASLQSFVDSYNTLATLVTSLTKGSISDKGVFTAAALTGDATPRALLATIRDQLAGASSRAGLSALSQLGIKTQQSNGTLSLDTATFTAALNDKKLGSQIQTMFTGTGATNADGTVDGGLVARMSKALLPYTKADGVLASKTSSLTKVQTRIASDQDALDRRIESLTASLTKKYNAMDLVVGQLKATATSITSIFEAMNAQKNAS | not soluble
MHLAKERSSVSGTLRVGDRSPRIAEVRTALTRLGLLEGTTKNLEQTKSDTFTDSETLFDEDLALALQGFQQARGIIASGEINEITLKLLREASYSLGARVLSFEPNNIFVGDDVVQLQHQLQELGFYTDRVDGRFGELTYTSLVNYQLNYGLNPDGICGPETIRAFGRLGRRITGGSPHALRERERVRDAGPMLAGKRVVIDPGFGGADKGQVVRGPYGDITEEEIIWDLAGRIEGRMIAAGMETIVSRPRQDSPSLKGRADIANAFGADVMISLQCDKYPNDKANGVASFYFGSEMGSSSLTGEMLSGFIQREISARTDLVNCGNHGRTWDLLRITEMPTVEVVLGYLTNPHDVAILTDPEQRDAIAEAIVVAVKRLYLLDDDDQPTGTYRFSEMLEQGLL | not soluble
TIKNFTFFSPNSTEFPVGSNNDGKLYMMLTGMDYRTIRRKDWSSPLNTALNVQYTNTSIIAGGRYFELLNETVALKGDSVNYIHANIDLTQTANPVSLSAETANNSNGVDINNGSGVLKVCFDIVTTSGTGVTSTKPIVQTSTLDSISVNDMTVSGSIDVPVQTLTVEAGNGLQLQLTKKNNDLVIVRFFGSVSNIQKGWNMSGTWVDRPFRPAAVQSLVGHFAGRDTSFHIDINPNGSITWWGANIDKTPIATRGNGSYFIKSAW | soluble
MNVYNKADSFSLESDSIKDVIHDYICWLSMTDETRPSIGNVFTAMETFKIDAVRYYDGNIYDLAKDINTMSFDSFIRSLQNITSKKDKLTVYGTMGLLSIVVDINKGRDVSNIKFAAGIIILMEYIFDDTDLSHLKIALYRRIQRRYPIDDDR | not soluble
NSSKCYIQVTGMTCASCVANIERNLRREEGIYSILVALMAGKAEVRYNPAVIQPPMIAEFIRELGFGATVIENIEGR | soluble
MRKVRIANEQTEESDIIKIVHLSDIHFSEAYYMPEIADSMLQIINESSPDIVIITGDLTENGFAAEYNGAKNFIDKIECKNKVIVPGNHDSKNAGYLFFEDIFKARSSSGYFGDVTVIGLDSSQPELDDGHIGRENYGWIESTFSTGSFKVFALHHHLIPIPKTGRGNNVLVDAGDVLELLDRSGVNLVLCGHWHIPWVWRLNDMFIISAGTVCSSKIRGKTSQCYNLIELETPESECTRWHLRITRVFSSGIKELVVDNIV | not soluble
MEVDEDIELQKHQEQQSRKLQRFSEDNTGLMRNWNNPSSRIIRVSRASGGKDRHSKVLTSKGLRDRRIRLSVATAIQFYDLQDRLGFDQPSKAVEWLINAASDSITDLPLLNTNFDHLDQNQNQTKSACSSGTSESSLLSLSRTEIRGKARERARERTAKDRDKDLQNAHSSFTQLLTGGFDQQPSNRNWTGGSDCFNPVQLQIPNSSSQEPMNHPFSFVPDYNFGISSSSSAINGGYSSRGTLQSNSQSLFLNNNNNITQRSSISSSSSSSSPMDSQSISFFMATPPPLDHHNHQLPETFDGRLYLYYGEGNRSSDDKAKERR | not soluble
MSTETIEIFNNSDEWANQLKHALSKGENLALLHGLTPDILDRIYAYAFDYHEKGNITDAEIYYKFLCIYAFENHEYLKDFASVCQPKKKYQQAYDLYKLSYNYFPYDDYSVIYRMGQCQIGAKNIDNAMQCFYHIINNCEDDSVKSKAQAYIELLNDNSEDNGLEHHHHHH | not soluble
MLDGLFNWAIARNIMNYNPLPTDKPNRPQGFIPYIYKREELKKIIDKSMTYRSFYTTFYPETIRGIIMLTYLWGLRPSETLGIEMADVHLGTDNYIVIKQMKFYNTRIVTFNDRSLLL | not soluble
LLSPPIALKPLDSSAKWRIIYWNPNGCDKTCLKQLNMLGRVRLSFGRKLYQVDEWLLLSNKDSLIAEELKPILKEQDIHVAALSLTEMSKLSTLYPEAKIFIANPDNYLILSYQPGCNPGDIYKDLKLLLNTTEIKSG | soluble
MSLAESQLSKLDVNLQSLNPYTFSKTRCIVNLHISDDTKNRDPSTTNGSYSNSQLLSNGEHVCYHFSQDYCVLSIYPVTDAITGKTVVVHLPHETFNDHHTFTMAEEDGCIVMDLILKTGLFLTLRFSLEYLFNRNADINSSWYSLLKPYDFTVRLPDYLYKVNSALSIVYLNDGGLLGLQKTQTSGSDEYDLHPVLFNDNSYFQSFTRFFSHNDSGRENVVSSVSYGDYHLLTLTENCKLRIWDLRTNSVTAQLNLITDPQDKHRKYESIGPYLALLDSVLVVFLPFGNGAFRTFQLSVNNSGGLVLTPRGELIRTNLSTASIWSLVDTKLTKPFELNIETSYLQMVVLWKSNTSIKLQILNFETEALDKHSWVEASNKSLPDILDNDILGDNFEQSLLDLKAHYTPAIYEEAQRILSANGEGHHHHHH | not soluble
MDTPFIVFWELTRACMLACKHCRAKAIRKRHPDELTTEECFNVIDQLSEFNPKPLLIITGGDPLMRDDVTEIISHAAEKGFRVAIAFSGTEKATEEKLRELKEAGVARVAVSIDGSDEEKHDSFRGVRGTFRMSMMAIENAKKAGLPFQINTTVTRENIEDLPNIARLCLELGAVMWDVFFVVPTGRAKAEMMPTPQQFE | not soluble
MGSDKIHHHHHHMVQHLVDLLDTWLPSYQEDWVLAVLTQVEGSSYRKPGAIMLFHPMGKSLGMLSGGCLEADLRRHAQRAIQTQQVIQLTYDATDESDTSYQLGCGGIVNIMMVSLNKANNYLGLVSVHDALMRGDRGTYQLEIVADGVSSHQISGHFVEASSDAAPITLNTKTLKVTEQHKTLLQIPLRPPVHIGIFGGGLDAKPIAQMAQTMGWKVTIFDERTAYARTYDFPGCHIMKHPTPSISTDLLSGLDAAFIMSHNLQIDAKTLKTLQPLPLAYISLLGPVHRRDKVLDMAELSLKDFSGYFSAPAGLALGGELPGSVALSILSQCHGVLYNSKLTSLDSVML | not soluble

Source: the DeepSol protein solubility set
